Measurements taken from US20230303654A1 (CITY OF HOPE, published 2023).

B1: Anti-spike RBD Ab38 scFv (scFv)
scFv: ELQMTQSPSSLSASVGDRVTITCRASQSISSYLNWYQQKPGKAPKLLIYAASSLQSGVPSRFSGSGSGTDFTLTISSLQPEDFATYYCQQANSFPLTFGGGTKVEIKGGSSRSSQVQLVQSGAEVKKPGSSVKVSCKASGGTLSENGFSWVRQAPGQGLEWMGRIVPMFDISNYAERFQDRVTITADGSTNTAYMELRSLRLEDTAVYYCARDAVATSPGVYQHYGMDVWGQGTTVTVSSASTKGPSV
B2: Anti-spike RBD Ab36 scFv (scFv)
scFv: ELVMTQSPSSVSASVGDRVTITCRASQAIGSWLAWYQQKPGKAPKLLISSASSLQSGVPSRFSGSGSGTDFTLTISSLQPEDFATYYCQQLDSYPVTFGPGTKVDIKGGSSRSSEVQLLESGGGLIQPGGSLRLSCAASGLTVSSNYMSWVRQAPGKGLEWVSVIYSGGSTYYADSVKGRFTISRDNSKNTLYLQMNSLRAEDTAVYYCARAIDSGAFDIWGQGTMVTVSSGSASAPTL
B3: ab14 (scFv, V domains shown)
VH: QVQLQQSGPGLVKPSQTLSLTCAISGDSVSSNSAAWNWIRQSPARGLEWLGRTYYRSRWYNDYAISMKSRITINPDTSKNQFSLQLESVTPEDTAVYYCAREIRGFDYWGQGTLVTVSS
VL: QSVLTQPPSASGSPGQSVTISCTGTSSDVGAYNFVSWYQHHPGKAPKLIIYDFNKRPSGVPDRFSGSKSGNTASLTVSGLQADDEADYYCSSYAGSNNFDVVFGGGTKLTVL
B4: ab19 (scFv, V domains shown)
VH: EVQLVESGAEVKKPGESLKISCKGSGYSFTSYWIGWVRQMPGKGLEWMGIIYPGDSDTRYSPSFQGQVTISADKSISTAYLQWSSLKASDTAMYYCARRGDLDAFDIWGQGTMVTVSS
VL: QPGLTQPPAASGTPGQRVTVSCSGASANIGSNAVSWFKQFPETAPRLLISGNTHRPSGVPDRVSGSKSGTSASLTISGLQSDDEADYYCAAWDDSLNGYVFGSGTKVTVL
B5: ab31 (scFv, V domains shown)
VH: EVQLVESGAEVKKPGESLKISCKGSGYTFTRYWIGWVRQMPGKGLEWMGIIYPGDLDTRYSPSFQGHVTISADKSISTAYLQWNSLKASDTAMYYCARLPQYCYKGVCKRWFDPWGQGTLVTVSS
VL: EIVLTQSPSSVSASVGDRVTITCRASQGIRSWLAWYQQKPGKAPKLLIYAASSLQSGVPSRFSGSGSGTDFTLTISSLQPEDFATYYCQQGHSVPYTFGQGTNLEIK
B6: ab33 (scFv, V domains shown)
VH: EVQLVESGAEVKKPGESLKISCKGSGYTFTRYWIGWVRQMPGKGLEWMGIIYPGDSDTRYSPSFQGHVTISADKSISTAYLQWNSLKASDTAMYYCARLPQYCRAGKCKRWFDPWGQGTLVTVSS
VL: EIVLTQSPSSVSASVGDRVTITCRASQGISSWLAWYQQKPGKAPKLLIYAASSLQSGVPSRFSGSGSGTDFTLTISSLQPEDFATYYCQQGNQYPYTFGQGTNLEIK
B7: ab46 (scFv, V domains shown)
VH: EVQLVESGAEVKKPGESLKISCKGSGYTFTRYWIGWVRQMPGKGLEWMGIIYPGDSDTRYSPSFQGHVTISADKSISTAYLQWNSLKASDTAMYYCARLPQYCSSGVCHRWFDPWGQGTLVTVSS
VL: EIVLTQSPSSVSASVGDRVTITCRASQGISSWLAWYQQKPGKAPKLLIYAASSLQSGVPSRFSGSGSGTDFTLTISSLQPEDFATYYCQQGHSFPYTFGQGTNLEIK
B8: ab41 (scFv, V domains shown)
VH: EVQLVESGAEVKKPGESLKISCKGSGYTFTRYWIGWVRQMPGKGLEWMGIIYPGDNDVRYSPSFQGHVTISADKSISTAYLQWNSLKASDTAMYYCARLPQYCSAGVCFRWFDPWGQGTLVTVSS
VL: EIVLTQSPSSVSASVGDRVTITCRASQGISNWLAWYQQKPGKAPKLLIYAASSLQSGVPSRFSGSGSGTDFTLTISSLQPEDFATYYCQQGYSYPYTFGQGTNLEIK
B9: ab35 (scFv, V domains shown)
VH: EVQLVESGAEVKKPGESLKISCKGSGYTFTRYWIGWVRQMPGKGLEWMGIIYPGDADTRYSPSFQGHVTISADKSISTAYLQWNSLKASDTAMYYCARLPQYCSRGVCQRWFDPWGQGTLVTVSS
VL: EIVLTQSPSSVSASVGDRVTITCRASQGISSWLAWYQQKPGKAPKLLIYAASSLQSGVPSRFSGSGSGTDFTLTISSLQPEDFATYYCQQGNQFPYTFGQGTNLEIK
B10: ab47 (scFv, V domains shown)
VH: EVQLVESGAEVKKPGESLKISCKGSGYTFTRYWIGWVRQMPGKGLEWMGIIYPGDSDTRYSPSFQGHVTISADKSISTAYLQWNSLKASDTAMYYCARLPQYCQNGVCHRWFDPWGQGTLVTVSS
VL: EIVLTQSPSSVSASVGDRVTITCRASQGIRNWLAWYQQKPGKAPKLLIYAASSLQSGVPSRFSGSGSGTDFTLTISSLQPEDFATYYCQQGDQDPLTFGQGTNLEIK
B11: ab32 (scFv, V domains shown)
VH: EVQLVESGAEVKKPGESLKISCKGSGYTFTRYWIGWVRQMPGKGLEWMGIIYPGDSETRYSPSFQGHVTISADKSISTAYLQWNSLKASDTAMYYCARLPQYCRRGVCKRWFDPWGQGTLVTVSS
VL: EIVLTQSPSSVSASVGDRVTITCRASQGISSWLAWYQQKPGKAPKLLIYAASSLQSGVPSRFSGSGSGTDFTLTISSLQPEDFATYYCQQGNQLPYTFGQGTNLEIK
B12: ab42 (scFv, V domains shown)
VH: EVQLVESGAEVKKPGESLKISCKGSGYTFTRYWIGWVRQMPGKGLEWMGIIYPGDSDTRYSPSFQGHVTISADKSISTAYLQWNSLKASDTAMYYCARLPQYCQSGVCKRWFDPWGQGTLVTVSS
VL: EIVLTQSPSSVSASVGDRVTITCRASQGIRSWLAWYQQKPGKAPKLLIYAASSLQSGVPSRFSGSGSGTDFTLTISSLQPEDFATYYCQQGDQYPLTFGQGTNLEIK
B13: ab40 (scFv, V domains shown)
VH: EVQLVESGAEVKKPGESLKISCKGSGYTFTRYWIGWVRQMPGKGLEWMGIIYPGDSETRYSPSFQGHVTISADKSISTAYLQWNSLKASDTAMYYCARLPQYCRSGVCQRWFDPWGQGTLVTVSS
VL: EIVLTQSPSSVSASVGDRVTITCRASQGISSWLAWYQQKPGKAPKLLIYAASSLQSGVPSRFSGSGSGTDFTLTISSLQPEDFATYYCQQGNQVPYTFGQGTNLEIK
B14: ab50 (scFv, V domains shown)
VH: EVQLVESGAEVKKPGESLKISCKGSGYTFTRYWIGWVRQMPGKGLEWMGIIYPGDADVRYSPSFQGHVTISADKSISTAYLQWNSLKASDTAMYYCARLPQYCSSGSCFRWFDPWGQGTLVTVSS
VL: EIVLTQSPSSVSASVGDRVTITCRASQGISSWLAWYQQKPGKAPKLLIYAASSLQSGVPSRFSGSGSGTDFTLTISSLQPEDFATYYCQQGYSTPYTFGQGTNLEIK
B15: ab45 (scFv, V domains shown)
VH: EVQLVESGAEVKKPGESLKISCKGSGYTFTRYWIGWVRQMPGKGLEWMGIIYPGDSDTRYSPSFQGHVTISADKSISTAYLQWNSLKASDTAMYYCARLPQYCSSGVCQRWFDPWGQGTLVTVSS
VL: EIVLTQSPSSVSASVGDRVTITCRASQGISSWLAWYQQKPGKAPKLLIYAASSLQSGVPSRFSGSGSGTDFTLTISSLQPEDFATYYCQQGNQFPYTFGQGTNLEIK
B16: ab43 (scFv, V domains shown)
VH: EVQLVESGAEVKKPGESLKISCKGSGYTFTRYWIGWVRQMPGKGLEWMGIIYPGDSDTRYSPSFQGHVTISADKSISTAYLQWNSLKASDTAMYYCARLPQYCSAGVCFRWFDPWGQGTLVTVSS
VL: EIVLTQSPSSVSASVGDRVTITCRASQGISSWLAWYQQKPGKAPKLLIYAASSLQSGVPSRFSGSGSGTDFTLTISSLQPEDFATYYCQQGHSFPYTFGQGTNLEIK
B17: ab44 (scFv, V domains shown)
VH: EVQLVESGAEVKKPGESLKISCKGSGYTFTRYWIGWVRQMPGKGLEWMGIIYPGDLDVRYSPSFQGHVTISADKSISTAYLQWNSLKASDTAMYYCARLPQYCREGKCHRWFDPWGQGTLVTVSS
VL: EIVLTQSPSSVSASVGDRVTITCRASQGIRNWLAWYQQKPGKAPKLLIYAASSLQSGVPSRFSGSGSGTDFTLTISSLQPEDFATYYCQQGDQDPLTFGQGTNLEIK
B18: ab48 (scFv, V domains shown)
VH: EVQLVESGAEVKKPGESLKISCKGSGYTFTRYWIGWVRQMPGKGLEWMGIIYPGDNDVRYSPSFQGHVTISADKSISTAYLQWNSLKASDTAMYYCARLPQYCDKGICKRWFDPWGQGTLVTVSS
VL: EIVLTQSPSSVSASVGDRVTITCRASQGISSWLAWYQQKPGKAPKLLIYAASSLQSGVPSRFSGSGSGTDFTLTISSLQPEDFATYYCQQGDQLPYTFGQGTNLEIK
B19: ab49 (scFv, V domains shown)
VH: EVQLVESGAEVKKPGESLKISCKGSGYTFTRYWIGWVRQMPGKGLEWMGIIYPGDSDTRYSPSFQGHVTISADKSISTAYLQWNSLKASDTAMYYCARLPQYCENGICKRWFDPWGQGTLVTVSS
VL: EIVLTQSPSSVSASVGDRVTITCRASQGIRSWLAWYQQKPGKAPKLLIYAASSLQSGVPSRFSGSGSGTDFTLTISSLQPEDFATYYCQQGDQYPLTFGQGTNLEIK
B20: ab34 (scFv, V domains shown)
VH: EVQLVESGAEVKKPGESLKISCKGSGYTFTRYWIGWVRQMPGKGLEWMGIIYPGDADVRYSPSFQGHVTISADKSISTAYLQWNSLKASDTAMYYCARLPQYCRKGVCKRWFDPWGQGTLVTVSS
VL: EIVLTQSPSSVSASVGDRVTITCRASQGIRSWLAWYQQKPGKAPKLLIYAASSLQSGVPSRFSGSGSGTDFTLTISSLQPEDFATYYCQQGHSTPYTFGQGTNLEIK
B21: ab23 (scFv, V domains shown)
VH: EVQLVQSGAEVKKPGSSVKVSCRSSGGTFSTYGITWVRQAPGQGLEWMGRIIPSLGIPNYAQKFQGRVTITADTSVSTAWMELSSLESDDTAIYYCARENIDLATNDFWGQGTLVTVSS
VL: QSALTQPPSASGSPGQSVTISCTGTSRDIGAYGYVSWYQQVPGKAPKLIIYEVRNRPSGVSSRFSGSKSGNTASLTISGLQAEDEADYYCSSYTSSSTLDVVFGGGTKLTVL

Each binder was assayed against purified 6× His-tagged SARS-CoV-2 spike protein (ELISA coat, Example 12) (SARS-CoV-2, UniProt P0DTC2 14-1213).
B1 showed an EC50 of 10.6 nM. Work on B2 yielded an EC50 of 31.2 nM.

Target: purified 6× His-tagged SARS-CoV-2 spike protein (ELISA coat, Example 12) (SARS-CoV-2, UniProt P0DTC2 14-1213)
Remark: another data set of the same source
Work on B3 yielded an EC50 of 154 nM. B4 was tested, and the EC50 was 24.2 nM. Binder B5 has an EC50 of 40.4 nM. In the case of B6, the EC50 is reported as 33.4 nM. In the case of B7, the EC50 is reported as 106 nM. Binder B8 has an EC50 of 34.1 nM. For B9, the EC50 was 39 nM. For B10, the EC50 was 81.7 nM. B11 showed an EC50 of 13.1 nM. B12 showed an EC50 of 721 nM. For B13, the EC50 was 40 nM. For B14, the EC50 was 165 nM. B15 showed an EC50 of 37.3 nM. With B16 the EC50 was 216 nM. B17 gave an EC50 of 28.2 nM. For B18, the EC50 was 1560 nM. For B19, the EC50 was 234 nM. B20 was tested, and the EC50 was 22.7 nM. B21 showed an EC50 of 116 nM.
